Values quoted from earlier work in article PMC7801465.

Target: SARS-CoV-2 spike (SARS-CoV-2) (UniProt P0DTC2)

**Q.** With Basigin (from UniProt P35613) as the substance, how does the Kd read?
**A.** 185 nM
